The text below walks through data of publication PMC10729150 (Journal for Immunotherapy of Cancer, 2023).

Assay [1] deals with T1, Recombinant human CTLA-4-Fc (human, UniProt P16410). Nature of the assay: SPR.
In assay [2] the target is T1, Recombinant human CTLA-4-Fc. Briefly: ELISA. For orientation: In an ELISA, binding on a coated surface is turned into a signal by an enzyme label.

T1 sequence (P16410 36-161): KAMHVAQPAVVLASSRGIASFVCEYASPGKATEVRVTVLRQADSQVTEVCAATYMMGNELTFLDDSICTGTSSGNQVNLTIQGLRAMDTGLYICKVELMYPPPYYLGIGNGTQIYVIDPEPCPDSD

B1: XTX100 (antibody, V domains shown)
VH: QVQLVQSGAEVKKPGSSVKVSCKASGYTFTNYFMNWVRQAPGQGLEWMGRVDPEQGRADYAEKFKKRVTITADKSTSTAYMELSSLRSEDTAVYYCARRAMDNYGFAYWGQGTLVTVSS
VL: EIVLTQSPDFQSVTPKEKVTITCSANSALSYMYWYQQKPDQSPKLWVHGTSNLASGVPSRFSGSGSGTDFTLTINSLEAEDAATYYCHHWSNTQWTFGGGTKVEIK
By Kd is commonly meant the constant that tells how readily two partners part at equilibrium. In the case of B1, the Kd is 0.091 nM in assay [1] and 0.16 nM in assay [2].

B2: XTX101+MMP (proteolytically activated XTX101) (antibody, V domains shown)
VH: QVQLVQSGAEVKKPGSSVKVSCKASGYTFTNYFMNWVRQAPGQGLEWMGRVDPEQGRADYAEKFKKRVTITADKSTSTAYMELSSLRSEDTAVYYCARRAMDNYGFAYWGQGTLVTVSS
VL: EIVLTQSPDFQSVTPKEKVTITCSANSALSYMYWYQQKPDQSPKLWVHGTSNLASGVPSRFSGSGSGTDFTLTINSLEAEDAATYYCHHWSNTQWTFGGGTKVEIK
Consider B2, for which the Kd worked out at 0.127 nM in assay [1] and 0.24 nM in assay [2].
